From article PMC4794721, “Improved Production of Active Streptomyces griseus Trypsin with a Novel Auto-Catalyzed Strategy” (Scientific Reports, 2016)

Substrate: N=C(N)NCCCC(NC(=O)c1ccccc1)C(=O)Nc1ccc([N+](=O)[O-])cc1
Assay: purified protein
Details: 50 mM Tris-HCl, pH 8.0, 37 °C (amidase assay)

B1: SGT (Streptomyces griseus trypsin) (Streptomyces griseus) (protein)
chain: VVGGTRAAQGEFPFMVRLSMGCGGALYAQDIVLTAAHCVSGSGNNTSITATGGVVDLQSSSAVKVRSTKVLQAPGYNGTGKDWALIKLAQPINQPTLKIATTTAYNQGTFTVAGWGANREGGSQQRYLLKANVPFVSDAACRSAYGNELVANEEICAGYPDTGGVDTCQGDSGGPMFRKDNADEWIQVGIVSWGYGCARPGYPGVYTEVSTFASAIASAARTL
With B1 as the protein, how does the Km read?
Its Km is 7.88 ± 0.16 × 10^−2 mM.
